Reference: publication PMC6525047
Blank lines part the entries; values can stand above or below the binder they belong to.

How the values were obtained:
RIPLET (human), Q8IUD6 = molecular target: T1, RIPLET (human), Q8IUD6; experiment: SEC-MALS; conditions: remark: other sources report otherwise
T1 chain: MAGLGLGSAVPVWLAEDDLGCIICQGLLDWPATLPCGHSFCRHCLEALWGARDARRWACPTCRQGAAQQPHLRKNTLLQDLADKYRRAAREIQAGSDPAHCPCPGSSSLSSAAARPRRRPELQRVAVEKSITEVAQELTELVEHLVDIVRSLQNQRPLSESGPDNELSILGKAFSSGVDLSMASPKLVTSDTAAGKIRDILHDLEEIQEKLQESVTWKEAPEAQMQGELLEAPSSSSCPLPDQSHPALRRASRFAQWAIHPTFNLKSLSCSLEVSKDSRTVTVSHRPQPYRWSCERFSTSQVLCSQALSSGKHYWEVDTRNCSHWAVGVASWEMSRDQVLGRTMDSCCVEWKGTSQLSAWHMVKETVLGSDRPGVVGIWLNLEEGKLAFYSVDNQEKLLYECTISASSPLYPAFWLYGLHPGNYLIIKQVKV

RIG-IdeltaN;RIPLET = molecular target: T2, RIG-IdeltaN;RIPLET (human;human, UniProt O95786;Q8IUD6 230-925;1-432, |); experiment: EMSA
T2 sequence 1: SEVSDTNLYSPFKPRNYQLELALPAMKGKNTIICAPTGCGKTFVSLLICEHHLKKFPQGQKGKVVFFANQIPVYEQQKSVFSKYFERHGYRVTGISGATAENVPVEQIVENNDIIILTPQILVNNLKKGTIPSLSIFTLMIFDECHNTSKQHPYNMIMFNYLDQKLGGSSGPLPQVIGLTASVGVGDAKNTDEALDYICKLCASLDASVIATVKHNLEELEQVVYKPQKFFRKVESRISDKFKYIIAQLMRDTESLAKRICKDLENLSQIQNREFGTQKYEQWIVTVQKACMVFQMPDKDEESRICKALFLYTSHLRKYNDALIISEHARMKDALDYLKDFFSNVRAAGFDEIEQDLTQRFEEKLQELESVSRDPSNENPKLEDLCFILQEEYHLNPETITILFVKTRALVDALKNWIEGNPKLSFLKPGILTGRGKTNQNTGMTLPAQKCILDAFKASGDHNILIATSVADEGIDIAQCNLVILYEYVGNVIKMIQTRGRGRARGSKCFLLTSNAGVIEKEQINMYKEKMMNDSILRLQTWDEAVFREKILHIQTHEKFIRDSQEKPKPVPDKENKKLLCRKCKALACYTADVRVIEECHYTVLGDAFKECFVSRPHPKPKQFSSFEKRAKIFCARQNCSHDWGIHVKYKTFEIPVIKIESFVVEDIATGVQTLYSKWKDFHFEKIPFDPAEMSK
T2 sequence 2: T1 chain

stoichiometry N (RIPLET (human), Q8IUD6): 2
B1: RIPLET, Q8IUD6 1-432 (enzyme)
chain: T1 chain

B2: 21 bp dsRNA (dsRNA)
RNA 1: GAGUCACGACGUUGUAAAAAA
RNA 2: UUUUUUACAACGUCGUGACUC
modifications: 5'ppp
binding result (RIG-IdeltaN;RIPLET): binds
